Experimental data reported in PMC10628450.

Experiments:
[1] = molecular target: FcRn-His6 (UniProt P55899); test: BLI; pH 6; settings: bispecific antibody
[2] = molecular target: FcRn-His6 (UniProt P55899); test: BLI; settings: bispecific antibody
[3] = molecular target: Anti-NKp46_AB_F06 (human); test: BLI; antibodies loaded at 5 µg/ml on anti-human-Fc (AHC) or anti-human-CH1 (FAB2G) biosensors; antigen in solution (EGFR 3.125-200 nM; NKp46 and NKp30 1.6-100 nM) in kinetics buffer (PBS, 0.1% Tween-20, 1% BSA); 25°C; 1:1 binding model
[4] = molecular target: Anti-NKp46_AB_H05 (human); test: as above
Chain of Anti-NKp46_AB_H05 (human) (heavy, as listed by the source, chain 1 of 2): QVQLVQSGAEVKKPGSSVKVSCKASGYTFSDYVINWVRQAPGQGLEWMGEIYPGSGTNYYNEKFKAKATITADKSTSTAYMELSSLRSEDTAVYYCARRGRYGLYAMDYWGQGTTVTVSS
Chain of Anti-NKp46_AB_H05 (human) (light, as listed by the source, chain 2 of 2): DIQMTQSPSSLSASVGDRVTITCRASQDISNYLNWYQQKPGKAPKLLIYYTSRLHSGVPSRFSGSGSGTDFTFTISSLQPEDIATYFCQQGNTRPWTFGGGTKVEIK

Chain of Anti-NKp46_AB_F06 (human) (heavy, as listed by the source, chain 1 of 2): as the sequence (heavy, as listed by the source, chain 1 of 2) above
Chain of Anti-NKp46_AB_F06 (human) (light, as listed by the source, chain 2 of 2): as the sequence (light, as listed by the source, chain 2 of 2) above

Substance	Kd [1] [µM]	koff [1] [s⁻¹]	Kd [2] [µM]	Kd [3] [µM]	Kd [4] [µM]
Anti-NKp46_EF_F06 (from UniProt P01857)	–	0.0736	0.477	–	–
human EGFR ECD-His6 (from UniProt P00533 25-645) (receptor)	–	–	–	0.0294	0.0377
Anti-NKp46_AB_F06 (from UniProt P01857)	0.407	0.0576	–	–	–

Next, values leading:

Kd [1] [µM]	koff [1] [s⁻¹]	Kd [2] [µM]	Kd [3] [µM]	Kd [4] [µM]	Substance
0.392	0.0852	–	–	–	Anti-NKp46_EF_H05 (from UniProt P01857)
0.399	0.076	–	–	–	Anti-NKp46_AB_H05 (from UniProt P01857)
